Experimental findings from publication PMC7212079 are described below.

For the test, the target named is Hsp32. Briefly: native MS.

In general, stoichiometry N refers to the number of molecules, sites or subunits per partner or assembly. Substance Hsp32 (natural protein) registered a stoichiometry N of 2.
